Assay results published in the supplement of paper PMC9170038.

System: MS2 coat protein
Assay: apparent KD of MS2 coat protein; designed switch direction (-1 OFF switch, 1 ON switch): -1; higher = weaker reporter binding
Summary of the method: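 The buffer was Tris-HCl pH 7.5 with KCl, MgCl2, BSA, DTT, tRNA and Tween-20. In it, SNAP-549-labelled MS2 coat protein was titrated in doubling steps from 0.7 or 1.5 nM to 3 µM over chip-bound RNA switches transcribed by stalled E. coli RNA polymerase on Illumina chips. Apparent KD is the per-design median over clusters of curve fits to normalised fluorescence.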

[1] = Eterna round: R95, input ligand: microRNA oligo, concentration not stated
[2] = Eterna round: R95, input ligand: FMN 200 uM
[3] = Eterna round: R95, input ligand: none
[4] = input ligand: microRNA oligo, concentration not stated

| Sequence | apparent KD of MS2 coat protein [1] [µM] | apparent KD of MS2 coat protein (input ligand: FMN 200 uM) [µM] | apparent KD of MS2 coat protein (input ligand: none) [µM] | other results |
| --- | --- | --- | --- | --- |
| AAUGUUGAUGUGAGGAUAUACAUAGUUUGACCGUAGUAGAAGGCACAUGAGGAUCACCCAUGUAGAUGUUUGGU [JR_BME4_Sub004] (puzzle: Brourd's mod of Exclusion 4) | 0.0125 |  |  |  |
| CUCAUGUCAGGAUAUUAAGUCCGUAGCCUAUGGCUGCAACAUGAGAAGGGACAUGAGGAUCACCCAUGUCGGGA [Edceleon] (puzzle: Exclusion 4) | 0.0343 |  |  |  |
| GGACCUCCUGAGGAUAUUGUAUCACCCGACUGAUAAGAAGGCAGAACAUGAGGAUCACCCAUGUGGGUACUCGG [Bingo-Bango-14] (Eterna round: R97, puzzle: Exclusion 6) |  | 0.0346 | 0.0384 |  |
| AACCUACAUGAGGAUCACCCAUGUGAGGAUAUAUUGUUAUGGAUGUUAUUUUGUAGUGGUAGAAGGCGCGUGAU [JR_Exc1_Sub024] (Eterna round: R97, puzzle: Exclusion 1) |  | 0.019 | 0.0159 |  |
| AACGAUCUAGGAUAUACAUGAGGAUCACCCAUGUAAGAGCUCAAACCGAGCUCCCUCUGUAGAAGGAGGUCAAA [Atquteuson] (puzzle: Exclusion 3) | 0.0485 |  |  |  |
| GUUAAGGUAGGAUAUACGAUAAUAUAGGGUAGAAUUAUAACACAUGAGGAUCACCCAUGUAGAAGGACCAAUUG [Mat - Exclusion 2 - Mod of my Tesla design - D52] (puzzle: Exclusion 2) | 0.0258 |  |  |  |
| CCGCAUAUGCAGGAUAUCGUAUCGGAAACGAUACGAGAAGGGUAAACAUGAGGAUCACCCAUGUUCCUUAACGG [Fiskers Ex 6 - 28] (puzzle: Exclusion 6) | 0.0146 |  |  |  |
| AGUAGUAGUAUCCGGUCCUACAUGAGGAUCACCCAUGUAGCUAGACGUGCACGCGAUGCUCGUCAGACUACCAGAUG [salish99_TOv1_r3_045] (puzzle: Sensor v3, turn-off variant 1) | 0.0451 |  |  | apparent KD of MS2 coat protein [2]: 0.0486 µM; apparent KD of MS2 coat protein [3]: 0.0595 µM |
| CGUUGAAUAGGAUAUACAUGAGGAUCACCCAUGUGAAAUUAUAGUGAGGAAAUGAAAAGUAGAAGGGUUUGACA [Mod of Mat 8 - Jieux - Exclusion 3] (Eterna round: R97, puzzle: Exclusion 3) |  | 0.0276 | 0.0304 |  |
| CUAUUCCGAGGAUAUACAUGAGGAUCACCCAUGUCGGGCCUCCGCGUUUCGCGCCUCAGUAGAAGGCGGGUUUC [JL Riri mod 1] (puzzle: Exclusion 3) | 0.0183 |  |  |  |
| AGUACUAACACGUAAGUGUUAGUACUAUAAGCUUGUGUUACAUGAGGAUCACCCAUGUCCUCAUAAGCUCGUCUUAA [Mat - Sensor v3 - Turn-off var 2 - D71] (puzzle: Sensor v3, turn-off variant 2) | 0.132 |  |  | apparent KD of MS2 coat protein [2]: 0.0343 µM; apparent KD of MS2 coat protein [3]: 0.0394 µM |
| CUGAUGUGAGGAUAUGUGAUCUGCCUUCUAUAUAGAUGAUUACAGAAGGCACAUGAGGAUCACCCAUGUAGAUC [Ex4 - 3 - 25] (puzzle: Exclusion 4) | 0.0518 |  |  |  |
| GGAUGCUGAGUAAGGAUAUGGUAGGCUUGCGCCUACCAGAAGGUACAUGAGGAUCACCCAUGUUAGCAUCCAGU [eternacac ex4r4 #3] (Eterna round: R97, puzzle: Brourd's mod of Exclusion 4) |  | 0.0196 | 0.0162 |  |
| AAGAUGCGGAUAGGAUAUGGAGAGAAAGAAAGACCAGAAGGAUUGGUCAUAUAACAUGAGGAUCACCCAUGUAUAUGUUGUGAA [AK ExNG1-3.2] (Eterna round: R96, puzzle: Exclusion NG 1) |  |  |  | apparent KD of MS2 coat protein [4]: 0.013 µM |
| CCGCUCCGUGUAGGAUAUCGGCGUACCCUGCGCCGAGAAGGACAUGAGGAUCACCCAUGUAUGUUAUUAUCACGCGUGGCGCAC [Design 74] (Eterna round: R96, puzzle: Exclusion NG 1) |  | 0.0198 | 0.0202 | apparent KD of MS2 coat protein [4]: 0.0146 µM |
| AUCGUGCAGCAAAGCUGUACGAGUACAUGAGGAUCACCCAUGUAGGAUAUGGUACGCAAAGCGUGCUAGAAGGAUAUGUGUAGG [Mat - Exclusion NG 3 - Mod of JL - D84] (Eterna round: R96, puzzle: Exclusion NG 3) |  | 0.0696 | 0.0571 | apparent KD of MS2 coat protein [4]: 0.0446 µM |
| GACCACUCAGGAUAUCGGACGGGAAACAUGAGGAUCACCCAUGUGAUGCUGAUAUUCGCACGAGAAGGGAGAAUGA [EX5 B.21] (Eterna round: R97, puzzle: Exclusion 5) |  | 0.0198 | 0.0188 |  |
| UAAAUGUGAGGAUAUUCGAUGAACACGGAGACGUGUUUAUCGGAGAAGGCACAUGAGGAUCACCCAUGUUCCUU [Mat - Exclusion 4 - JL Mod - D5] (Eterna round: R97, puzzle: Exclusion 4) |  | 0.216 | 0.0247 |  |

| Sequence | apparent KD of MS2 coat protein [1] [µM] | apparent KD of MS2 coat protein (input ligand: FMN 200 uM) [µM] | apparent KD of MS2 coat protein (input ligand: none) [µM] | other results |
| --- | --- | --- | --- | --- |
| CGUACUGAAGUCAGGAUAUUGUCUCGGAUACGAAACAAGAAGGGACAUGAGGAUCACCCAUGUAGACAGUACGA [Malc #30 mod 3] (puzzle: Brourd's mod of Exclusion 4) | 0.0205 |  |  | apparent KD of MS2 coat protein [2]: 0.0193 µM; apparent KD of MS2 coat protein [3]: 0.0249 µM |
| AGCAUGCUAGGAUAUACGAAACAUUAGGGUUCUUUGUAUGAACAUGAGGAUCACCCAUGUAGAAGGAGCGUGCA [Mat - Exclusion 2 - Mod of Hyphema - D96] (puzzle: Exclusion 2) | 0.0825 |  |  |  |
| GGUAGAGAGCAGGAUAUCUUGGGUAAGUAUUGUAGAGAAGGGCUCACAUGAGGAUCACCCAUGUGGUCCAAGAU [JL Dibiri mod 06] (puzzle: Exclusion 6) | 0.0128 |  |  |  |
| GGCACACAUGAGGAUCACCCAUGUGAGGAUAUGCUGCGAUCGUCGAUAGACGAUAGCAGUAGAAGGCACAUGCC [Mat - Exclusion 1 - Eli Mod - D7] (Eterna round: R97, puzzle: Exclusion 1) |  | 0.0259 | 0.0191 |  |
| AGUAACUAUCACGAAAGUGAUAGUUACACAAGCAGUGAAACAUGAGGAUCACCCAUGUCCUCAUUAGCUCGUCUUAU [Sensor 3 - 32] (puzzle: Sensor v3, turn-off variant 2) | 0.729 |  |  | apparent KD of MS2 coat protein [2]: 0.117 µM; apparent KD of MS2 coat protein [3]: 0.164 µM |
| AUAAAGCGAGGAUAUACAUGAGGAUCACCCAUGUGGCAGCCAGGUAGGAGUGACGUCGGUAGAAGGCGCACCCU [Quleraer] (puzzle: Exclusion 3) | 0.0242 |  |  |  |
| ACUUAUUGAGGAUAUACAGAUUAUUACAUGAGGAUCACCCAUGUUCUUCAAUGUAUAUAUGUAGAAGGCAGAAGAA [JL-ex5-4.25 Malcolm mod] (Eterna round: R97, puzzle: Exclusion 5) |  | 0.179 | 0.0567 |  |
| GGAUCGAGUGUGAGGAUAUGCAGGUCCUUGGAUCUGCAGAAGGCACAUGAGGAUCACCCAUGUGGAAACGGUCC [Mat - Exclusion 4 - JL Mod - D76] (puzzle: Brourd's mod of Exclusion 4) | 0.0589 |  |  |  |
| GAUCAUGCAGGAUAUACAUAAACCAUGAAAACAUGGAUCAAACAUGAGGAUCACCCAUGUAGAAGGGCAUGAUC [Omei Ex2 A20] (Eterna round: R97, puzzle: Exclusion 2) |  | 0.042 | 0.0241 |  |
| GUCGUGCAGCUUUGCUGUACGAGUACAUGAGGAUCACCCAUGUAGGAUAUGGUACGCUUUGCGUGCUAGAAGGAUAUGUGUAGC [salish99_ExNG3_r04_503] (Eterna round: R96, puzzle: Exclusion NG 3) |  | 0.0448 | 0.0371 | apparent KD of MS2 coat protein [4]: 0.029 µM |
| UUUUAGUCAGGAUAUACAUUUUUUUAUUUAUUUAUAAUAUUACAUGAGGAUCACCCAUGUAGAAGGGACAUUUU [My Design] (puzzle: Exclusion 2) | 0.0296 |  |  |  |
| ACGUACUCUGUAGGAUAUCGAUGAUGCAUGAUUCGAGAAGGACAUGAGGAUCACCCAUGUUUCAAAAGCAUACUAUGUGUAGUA [Design #2] (Eterna round: R96, puzzle: Exclusion NG 1) |  | 0.0444 | 0.0209 | apparent KD of MS2 coat protein [4]: 0.0136 µM |
| GAUUGACAUGAGGAUCACCCAUGUGAGGAUAUCGGCUGGACCGUGUUGGCUUGGCUUUCGAGAAGGCGCAUAGG [Exclusion 1 V47] (puzzle: Exclusion 1) | 0.0426 |  |  | apparent KD of MS2 coat protein [2]: 0.0539 µM; apparent KD of MS2 coat protein [3]: 0.0537 µM |
| UGUGUGCUGCGAGGAUAUACAUGAGGAUCACCCAUGUAAAUGUGUGAGGCUUUGCCUCACACAAUGUAGAAGGCGCAGUACACU [Mat - Exclusion NG 2 - Mod of JL - D4] (Eterna round: R96, puzzle: Exclusion NG 2) |  | 0.0169 | 0.0116 | apparent KD of MS2 coat protein [4]: 0.00963 µM |
| CCUCCACAUGAGGAUCACCCAUGUCAGGAUAUCGUGUGUGCGUUUUCGGUCUUUCGCGCGAGAAGGGACGACUG (puzzle: Exclusion 1) | 0.0275 |  |  |  |
| AGUAAGCUAGGAUAUGCUUUGGGAAAGCAUUCCUUCGAUAAACUUGAGGAUCACCCAAGUAGAAGGAGCUUACC [salish99_ex2_r4_002] (Eterna round: R97, puzzle: Exclusion 2) |  | 0.0134 | 0.0124 |  |
| AAUUAACAUGUAGGAUAUCUGCACGUGUAGUGCAGAGAAGGACAUGAGGAUCACCCAUGUAUAGCGACUUCGGUCGCAAUAAUU [ENG1/2-B3] (Eterna round: R96, puzzle: Exclusion NG 1) |  | 0.313 | 0.14 | apparent KD of MS2 coat protein [4]: 0.119 µM |
| UAUUAGCUAGGAUAUACAUGAGGAUCACCCAUGUCACGGGUCAACUUGUCCUAUGCGUGUAGAAGGAGCGACCC [JL Ceriza mod 5] (puzzle: Exclusion 3) | 0.0188 |  |  |  |
